From patent publication US9624285B2, “Methods of treating diabetes and compositions capable of same” (Ramot a Tel-Aviv University Ltd., priority 2010, dated 2017) come the findings set out here.

In data set [1] the test system is Rin-m cells. The experiment in a line: Confocal microscopy of cells incubated with labelled oligomers. Format: cell-based. The settings on record: 5 μM. Here is the method: Rin-m cells were cultured on glass cover slips located in 24-well micro plates, then incubated for different periods with hIAPP-Hiytelfluor 488 (Anaspec, USA) oligomers (5 μM) at 37° C., as described in the cell cytotoxicity experiments section. After incubation cells were washed with PBS buffer and fixed with 4% paraformaldehyde in PBS for 5 minutes and washed with PBS buffer. Cells were treated with 1% Triton x-100 in PBS and stained with 50 μg/ml Phalloidin Tetramethyl-rhodamine B isothiocyanate (Sigma-Aldrich) in PBS 40 minutes in room temperature, followed by extensive wash with PBS buffer. The cells were imaged using LSM 510 confocal laser scanning microscope (Carl Zeiss Jena, Germany).

For data set [2], the system named is Rin-m cells. The data set can be described thus: MTT reduction assay. It counts as cell-based. Here is the method:
Rin-m cells (2×10^5 cells/ml) were cultured in 96-well micro plates (100 μl/well) and incubated overnight at 37° C. Human oligomers and rat IAPP was added to each well at various concentrations. Each measurement was repeated four times. Following incubation for 6 hours at 37° C., cell viability was evaluated using 3-(4,5-dimethylthiazolyl-2)-2,5-diphenyltetrazolium bromide (MTT) assay. Briefly, 20 μL of 5 mg/ml MTT dissolved in PBS was added to each well. After 4 hours incubation at 37° C., 100 μl of extraction buffer [20% SDS dissolved in a solution of 50% dimethylformamide and 50% DDW (pH 4.7)] was added to each well, and the plates were incubated again overnight at 37° C. Finally, color intensity was measured using an ELISA plate reader at 570 nm.
In general terms: Formazan colour is commonly taken as a measure of viable cells.

A short description of data set [3]: Oligomer stability assay (PAGE under non reducing conditions). Format: physicochemical. The settings on record: dialyzed against PBS buffer, incubated at 37° C. Here is the method:
FIGS. 1A-E are graphs and photographs illustrating characterization of human IAPP oligomers. (FIG. 1A) PAGE analysis under non-reducing conditions of human IAPP oligomers and a negative control of non amyloidogenic rat IAPP (I-monomer, II-dimer and III-trimer). (FIG. 1B) Oligomer stability assay, hIAPP oligomers were dialyzed against PBS buffer and incubated at 37° C. Oligomer association/disassociation was monitored by PAGE analysis under non reducing conditions. (FIG. 1C) Size exclusion chromatography (Superdex 75 10/300, PBS buffer pH 7.4) of hIAPP oligomers; I-monomer, […], III-trimer and IV-90 kDa oligomer. (FIG. 1D) Transmittance electron microscopy (TEM) and atomic force microscopy (AFM) images of the ˜90 kDa oligomers, TEM scale bar 100 nm, AFM scale bar 600 nm. (FIG. 1E) CD spectroscopy of hIAPP and rIAPP, protein concentration of 5 μM. Each spectrum represents the average of three measurements.
IAPP synthetic peptide (Human; H-7905, Bachem, Bubendorf, Switzerland. Rat; 74-5-10A, American peptide, California, U.S.A) was suspended in 100% 1,1,1,3,3,3 hexafluoro-2-propanol (HFIP) at 1 mg/ml and incubated for complete solubilization under shaking (100 rpm) at 37° C. for 2 hours. […] IAPP self-assembly products were analyzed by 15% Tris-tricine PAGE and stained with Imperial protein stain. […]

Data set [4] has as its system Rin-m cells. The experiment in a line: Flow cytometry cell sorting (FACS) assay, Annexin V-FITC apoptosis detection. Format: cell-based. The settings on record: 0.5 μM, 1 μM and 5 μM. Here is the method: Rin-m cells (5×10^5 cells/ml) were cultured for 4 hours at 37° C. incubated with human IAPP oligomers (final concentration of 0.5 μM, 1 μM and 5 μM). Samples were washed with PBS buffer and resuspended with 500 μl binding buffer. 5 μl of Annexin V-FITC and 10 μl of propidium iodide (Annexin V-FITC apoptosis detection kit; MBL) was added to the samples. After 10 minutes of incubation in the dark at RT, samples were analyzed using the FACS Sort (Beckton Dickinson) and results analyzed using the CellQuest program (Beckton Dickinson). Each measurement was repeated three times. FL1-H represents the fluorescence of V-FITC and FL2-H represents the fluorescence of […].

[5] abbreviates: pancreatic RIN-m cells, 100 nM-10 μM, 6 hours.

No end group written: not given here.

For “hIAPP-Hiytelfluor 488 oligomers: oligomers of fluorescently labelled hIAPP-Hiytelfluor 488 (Anaspec) (KCNTATCATQRLANFLVHSSNNFGAILSSTNVGSNTY; not fully specified (C-terminus, bridges); cysteine pairing not given here; also: HiLyte Fluor 488 label, position not given here, oligomers; UniProt P10997 34-70, looked up)”, the “cell morphology (confocal)” value with Rin-m cells [1] (after eight hours) is recorded as “Dramatic cell morphology changes”. Also, the “cell numbers (confocal)” value in the data set on Rin-m cells [1] (after four hours, insertion of oligomers to the cytoplasm) is “massive decline in cell numbers”. For the same molecule, the “interaction of oligomers with cells (confocal)” value in the data set on Rin-m cells [1] (after one hour) is reported as “intensive localization of the oligomers to the cell membrane”.
As to “rIAPP: non amyloidogenic rat IAPP synthetic peptide, negative control, treated in the same manner [reference compound]”, in the data set with Rin-m cells [2] (setting [5]), the “cell viability (MTT reduction)” value was “showed no such effect”.

B1: hIAPP oligomers: isolated stable oligomers (dimers, trimers, ~90 kDa) of synthetic human islet amyloid polypeptide prepared with HFIP, NaOH and SDS (peptide)
peptide: MGILKLQVFLIVLSVALNHLKATPIESHQVEKRKCNTATCATQRLANFLVHSSNNFGAILSSTNVGSNTYGKRNAVEVLKREPLNYLPL
For B1, the “cell viability (MTT reduction)” value is reported as “dose dependent decrease in cell viability” with Rin-m cells [2] (setting [5]) and “reduced dramatically” with Rin-m cells [2] (pancreatic cells, 5 μM oligomers). The “oligomer stability (no disassembly or further polymerization to fibrils)” value was “up to 7 days” in data set [3] and “stable for up to seven days” in data set [3] (listed as oligomeric structures). Also, the “correlation of oligomer concentration with percentage of apoptotic cells” value with Rin-m cells [4] was “clear and strong correlation”. The “cell state (apoptosis) by FACS” value in the data set on Rin-m cells [4] (4 hours) is “mostly in the early and late apoptotic phase”.
